{"source": "paper PMC11880201", "key": {"CTCF ZF3-ZF7": {"target": "T1, CTCF ZF3-ZF7 (human, UniProt P49711 317-467)", "T1 sequence": "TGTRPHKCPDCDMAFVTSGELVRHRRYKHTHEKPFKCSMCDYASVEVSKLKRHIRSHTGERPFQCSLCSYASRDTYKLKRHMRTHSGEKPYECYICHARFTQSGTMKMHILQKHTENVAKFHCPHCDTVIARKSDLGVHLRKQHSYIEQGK", "assay": "EMSA"}, "TEAD1-TEAD R80A": {"target": "TEAD1-TEAD R80A (UniProt P28347 28-104, R80A)", "sequence (P28347 28-104 R80A)": "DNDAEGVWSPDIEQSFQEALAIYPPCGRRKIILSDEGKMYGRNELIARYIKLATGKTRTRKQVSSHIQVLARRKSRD", "assay": "EMSA"}, "TEAD1-TEAD L79A": {"target": "TEAD1-TEAD L79A (UniProt P28347 28-104, L79A)", "sequence (P28347 28-104 L79A)": "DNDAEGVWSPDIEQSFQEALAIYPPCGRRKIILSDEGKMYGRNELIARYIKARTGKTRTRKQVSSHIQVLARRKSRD", "assay": "EMSA"}, "TEAD1-TEAD R75A": {"target": "TEAD1-TEAD R75A (UniProt P28347 28-104, R75A)", "sequence (P28347 28-104 R75A)": "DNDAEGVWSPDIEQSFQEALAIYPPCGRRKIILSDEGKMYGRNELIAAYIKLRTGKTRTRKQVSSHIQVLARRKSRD", "assay": "EMSA"}, "INSM1 ZF1-ZF5 [1]": {"target": "T2, INSM1 ZF1-ZF5 (human, UniProt Q01101 257-497)", "T2 sequence (Q01101 257-497)": "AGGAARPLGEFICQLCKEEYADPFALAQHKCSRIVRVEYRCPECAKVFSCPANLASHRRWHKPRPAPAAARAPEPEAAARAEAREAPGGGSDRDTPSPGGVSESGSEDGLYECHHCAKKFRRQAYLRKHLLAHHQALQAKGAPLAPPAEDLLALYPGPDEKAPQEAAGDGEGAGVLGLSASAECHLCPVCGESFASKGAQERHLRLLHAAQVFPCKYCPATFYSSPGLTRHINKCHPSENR", "assay": "EMSA"}, "TEAD1-TEAD": {"target": "TEAD1-TEAD (UniProt P28347 28-104)", "sequence (P28347 28-104)": "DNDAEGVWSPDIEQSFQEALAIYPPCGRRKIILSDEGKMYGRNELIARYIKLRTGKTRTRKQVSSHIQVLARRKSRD", "assay": "EMSA"}, "INSM1 ZF1;TEAD1-TEAD [2]": {"target": "T3, INSM1 ZF1;TEAD1-TEAD (human;human?, UniProt Q01101;P28347 257-292;28-104, |)", "T3 sequence (Q01101 257-292, chain 1 of 2)": "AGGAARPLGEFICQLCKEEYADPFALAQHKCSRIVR", "T3 sequence (P28347 28-104, chain 2 of 2)": "as the sequence (P28347 28-104) above", "assay": "EMSA"}, "INSM1 ZF3": {"target": "INSM1 ZF3 (human, UniProt Q01101 346-396)", "sequence (Q01101 346-396)": "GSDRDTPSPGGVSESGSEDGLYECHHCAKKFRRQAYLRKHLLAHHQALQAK", "assay": "NMR titration"}, "INSM1 ZF1-ZF5 [3]": {"target": "T2, INSM1 ZF1-ZF5", "assay": "NMR titration"}, "INSM1 ZF1;TEAD1-TEAD [4]": {"target": "T3, INSM1 ZF1;TEAD1-TEAD", "assay": "AUC"}, "INSM1 ZF1-ZF5 [5]": {"target": "T2, INSM1 ZF1-ZF5", "assay": "EMSA", "remark": "listed apart in the source"}}, "note": "Read-outs that look alike come from different tables or passages of the source."}
{"binder": "M2 (FAM) (dsDNA) DNA 1: TACCACCAGGGGGCAGT DNA 2: ACTGCCCCCTGGTGGTA", "values": [{"measurement": "Kd", "setting": "CTCF ZF3-ZF7", "result": 0.0984, "unit": "µM"}]}
{"binder": "MCAT (FAM) (dsDNA) DNA 1: AGTGGAATGTGC DNA 2: GCACATTCCACT", "values": [{"measurement": "binding result", "setting": "TEAD1-TEAD R80A", "result": "binds"}, {"measurement": "binding result", "setting": "TEAD1-TEAD L79A", "result": "binds"}, {"measurement": "binding result", "setting": "TEAD1-TEAD R75A", "result": "binds"}, {"measurement": "Kd", "setting": "INSM1 ZF1-ZF5 [1]", "result": 8.24, "unit": "µM"}, {"measurement": "Kd", "setting": "TEAD1-TEAD", "result": "~0.09", "unit": "µM"}, {"measurement": "binding result", "setting": "INSM1 ZF1;TEAD1-TEAD [2]", "result": "binds"}]}
{"binder": "M2 (unlabeled) (dsDNA) DNA 1: TACCACCAGGGGGCAGT DNA 2: ACTGCCCCCTGGTGGTA", "values": [{"measurement": "binding result", "setting": "INSM1 ZF3", "result": "binds"}, {"measurement": "binding result", "setting": "INSM1 ZF1-ZF5 [3]", "result": "binds"}]}
{"binder": "MCAT (unlabeled) (dsDNA) DNA 1: AGTGGAATGTGC DNA 2: GCACATTCCACT", "values": [{"measurement": "binding result", "setting": "INSM1 ZF1;TEAD1-TEAD [4]", "result": "binds"}]}
{"binder": "M1 (dsDNA) DNA 1: TGTCAGGGGGCA DNA 2: TGCCCCCTGACA", "values": [{"measurement": "Kd", "setting": "INSM1 ZF1-ZF5 [5]", "result": 6, "unit": "µM"}]}
